Data on 5 molecules can be found in patent US20160083465A1 (AVEO PHARMACEUTICALS, published 2016).

Changes are numbered by the printed parent chain.

The target in test [1] is T1, 6xHis tagged recombinant human GDF15 (His-rhGDF15) (human, UniProt Q99988 197-308).
T1 construct: Bought from R&D Systems
T1 sequence: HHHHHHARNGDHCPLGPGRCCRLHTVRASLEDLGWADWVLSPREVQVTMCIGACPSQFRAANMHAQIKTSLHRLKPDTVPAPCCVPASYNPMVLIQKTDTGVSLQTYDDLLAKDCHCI
In words: SPR Biacore T100, 37 C, antibody captured by anti-mouse IgG, antigen in solution. Here is the method: (§1) Rabbit anti-mouse IgGs (GE Healthcare) were immobilized on carboxymethylated dextran CM4 sensor chips (GE Healthcare) by amine coupling, according to a standard protocol. Analyses were performed at 37° C. using PBS containing 0.05% surfactant P20 as running buffer. The antibodies were captured in individual flow cells at a flow rate of 10 μL/minute. Injection time was varied for each antibody to yield an Rmax between 30 and 60 RU. 250 μg/mL mouse Fc (Jackson ImmunoResearch, West Grove, Pa.) was injected at 30 μL/minute for 120 seconds to block non-specific binding of capture antibodies to mouse Fc portion of the recombinant GDF15 protein when needed. […] The dissociation phase was monitored for up to 1500 seconds. The surface was then regenerated with two 60-second injections of 10 mM Glycine-HCl, pH 1.7, at a flow rate of 30 μL/minute.
(§2) Kinetic parameters were determined using the kinetic function of the BIAevaluation software (GE Healthcare) with double reference subtraction.

The target in test [2] is T2, untagged recombinant human GDF15 (rhGDF15 (Peprotech)) (human, UniProt Q99988 197-308, limits assumed).
T2 construct: Bought from Peprotech
T2 sequence (looked up): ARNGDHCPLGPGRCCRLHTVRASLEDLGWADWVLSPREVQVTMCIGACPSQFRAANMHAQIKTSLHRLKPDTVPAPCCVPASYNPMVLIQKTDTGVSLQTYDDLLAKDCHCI
The description is as above. As to the method: as §1, §2

For test [3], the target named is T3, mouse IgG1 Fc-mature human GDF15 fusion protein (mFc-rhGDF15) (mouse; human).
T3 construct: Made in CHOK1SV cells, purified by Protein A and size exclusion; also called mouse Fc fused to human GDF15
T3 chain: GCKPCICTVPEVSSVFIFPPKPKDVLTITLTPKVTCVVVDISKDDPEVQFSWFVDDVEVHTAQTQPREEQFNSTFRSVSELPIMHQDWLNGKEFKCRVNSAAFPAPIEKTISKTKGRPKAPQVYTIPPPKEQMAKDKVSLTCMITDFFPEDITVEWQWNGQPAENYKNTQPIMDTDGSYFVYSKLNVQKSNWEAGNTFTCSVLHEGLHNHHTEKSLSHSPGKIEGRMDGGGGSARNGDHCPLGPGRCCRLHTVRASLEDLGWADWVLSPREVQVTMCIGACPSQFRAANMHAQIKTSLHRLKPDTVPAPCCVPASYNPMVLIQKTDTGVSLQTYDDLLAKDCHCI
The test is described as above. Here is the method: as §1, §2

Test [4] deals with T4, cleaved-rhGDF15 (human, UniProt Q99988 197-308).
T4 sequence: T2 sequence (looked up)
The description is as above. Here is the method: as §1, §2

Test [5] addresses T5, rabbit IgG1 Fc-mature mouse GDF15 fusion protein (rFc-rmGDF15) (rabbit; mouse).
T5 construct: also called rabbit Fc mature recombinant mouse GDF15
T5 chain: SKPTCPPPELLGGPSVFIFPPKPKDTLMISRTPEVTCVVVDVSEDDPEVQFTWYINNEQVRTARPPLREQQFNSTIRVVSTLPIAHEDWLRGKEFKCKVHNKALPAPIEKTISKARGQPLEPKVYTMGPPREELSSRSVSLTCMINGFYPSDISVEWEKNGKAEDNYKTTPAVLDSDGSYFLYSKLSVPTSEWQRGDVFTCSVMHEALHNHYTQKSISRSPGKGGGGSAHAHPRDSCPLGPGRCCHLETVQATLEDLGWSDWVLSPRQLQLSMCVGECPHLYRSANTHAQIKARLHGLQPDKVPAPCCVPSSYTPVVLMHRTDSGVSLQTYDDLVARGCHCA
As to the kind of experiment: SPR Biacore T100, 37 C, purified antibody captured by anti-human IgG Fc, antigen in solution. Here is the method:
(§3) Goat anti-human IgGs (Fc fragment specific, Jackson ImmunoResearch, West Grove, Pa.) were immobilized on carboxymethylated dextran CM4 sensor chips by amine coupling, according to a standard protocol. Analyses were performed at 37° C. using PBS containing 0.05% surfactant P20 as running buffer. The antibodies were captured in individual flow cells at a flow rate of 10 μL/minute. Injection time was varied for each antibody to yield an Rmax between 30 and 60 RU. […] The dissociation phase was monitored for up to 1500 seconds. The surface was then regenerated with two 60-second injections of 10 mM Glycine-HCl, pH 2.25, at a flow rate of 30 μL/minute.
(§4) Kinetic parameters were determined using the kinetic function of the BIAevaluation software (GE Healthcare) with double reference subtraction. Kinetic parameters for each antibody, kₐ (association rate constant), kd (dissociation rate constant), and KD (equilibrium dissociation constant) were determined Kinetic values of purified monoclonal antibodies on mFc-rhGDF15, mature human GDF15, rFc-rmGDF15, and mFc-rcGDF15 are summarized in Table 27.

Test [6] concerns the target T6, mouse Fc mature recombinant cynomolgus monkey GDF15 (mFc-rcGDF15) (mouse; cynomolgus monkey, UniProt G7PWZ3 193-308).
T6 construct: mature; not shown: mouse Fc and any linker
T6 sequence (looked up): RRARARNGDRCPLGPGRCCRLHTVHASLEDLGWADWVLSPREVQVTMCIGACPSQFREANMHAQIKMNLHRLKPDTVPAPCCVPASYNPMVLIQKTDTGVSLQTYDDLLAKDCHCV
The test is described as above. As to the method: as §3, §4

For test [7], the target named is T3, mouse IgG1 Fc-mature human GDF15 fusion …. Described as above. As to the method:
as §3, §4

In test [8] the target is T4, cleaved-rhGDF15. The test is described as above. As to the method:
as §3, §4

The target of test [9] is T3, mouse IgG1 Fc-mature human GDF15 fusion …. As to the kind of experiment: BLI Octet QK, 30 C, antibody from supernatant on anti-human Fc sensor, 400 nM mFc-rhGDF15. Here is the method:
The Octet analysis was performed at 30° C. using 1× Kinetics Buffer (ForteBio, Inc.) as assay buffer. Anti-human IgG Fc Capture (AHC) biosensors (ForteBio, Inc.) were used to capture human antibodies onto the sensors. Sensors were saturated in assay buffer for at 300 seconds before the assay. […] Baseline was established by dipping the sensors into 1× assay buffer for 200 seconds. Next, association was monitored for 220 seconds in 400 nM mFc-rhGDF15 protein, and dissociation was followed for 600 seconds in buffer alone.
Kinetic parameters of the antibody, kₐ, kd, and KD were determined.

Test [10] shares this target. In words: SPR Biacore T100, 37 C, purified antibody captured by anti-human IgG Fc, antigen in solution. Here is the method: as §3, with “1200” for “1500”
as §2

B1: 01G06 (antibody, mouse IgG1, kappa)
heavy: EVLLQQSGPELVKPGASVKIPCKASGYTFTDYNMDWVKQSHGKSLEWIGQINPNNGGIFFNQKFKGKATLTVDKSSNTAFMEVRSLTSEDTAVYYCAREAITTVGAMDYWGQGTSVTVSSAKTTPPSVYPLAPGSAAQTNSMVTLGCLVKGYFPEPVTVTWNSGSLSSGVHTFPAVLQSDLYTLSSSVTVPSSTWPSETVTCNVAHPASSTKVDKKIVPRDCGCKPCICTVPEVSSVFIFPPKPKDVLTITLTPKVTCVVVDISKDDPEVQFSWFVDDVEVHTAQTQPREEQFNSTFRSVSELPIMHQDWLNGKEFKCRVNSAAFPAPIEKTISKTKGRPKAPQVYTIPPPKEQMAKDKVSLTCMITDFFPEDITVEWQWNGQPAENYKNTQPIMDTDGSYFVYSKLNVQKSNWEAGNTFTCSVLHEGLHNHHTEKSLSHSPGK
light: DIQMTQSPASLSASVGETVTITCRTSENLHNYLAWYQQKQGKSPQLLVYDAKTLADGVPSRFSGSGSGTQYSLKINSLQPEDFGSYYCQHFWSSPYTFGGGTKLEIKRADAAPTVSIFPPSSEQLTSGGASVVCFLNNFYPKDINVKWKIDGSERQNGVLNSWTDQDSKDSTYSMSSTLTLTKDEYERHNSYTCEATHKTSTSPIVKSFNRNEC
notes: Murine monoclonal from hybridoma, IgG1 kappa; also called antibody 01G06
On to B1, for which the Kd in [1] came out at 0.081 nM; in test [2], 0.093 nM; in [3], 0.21 nM; in the test with cleaved-rhGDF15 [4], 0.11 nM. Further, the koff in [1] is 0.0011 s⁻¹; in [2], 0.0019 s⁻¹; in test [3] it was 0.0007 s⁻¹; with cleaved-rhGDF15 [4], 0.00086 s⁻¹. Also, the on-rate constant (kon) in test [1] turned out to be 1.4e+07 M⁻¹ s⁻¹; in test [2] it was 2.1e+07 M⁻¹ s⁻¹; in test [3] it was 5.6e+06 M⁻¹ s⁻¹; in the test with cleaved-rhGDF15 [4], 7.5e+06 M⁻¹ s⁻¹.

B2: Hu01G06-146 (antibody, human IgG1, kappa)
heavy: not shown
light: DIQMTQSPSSLSASVGDRVTITCRTSENLHNYLAWYQQKPGKSPKLLIYDAKTLADGVPSRFSGSGSGTDYTLTISSLQPEDFATYYCQHFWSDPYTFGQGTKLEIKRTVAAPSVFIFPPSDEQLKSGTASVVCLLNNFYPREAKVQWKVDNALQSGNSQESVTEQDSKDSTYSLSSTLTLSKADYEKHKVYACEVTHQGLSSPVTKSFNRGEC
For B2, the equilibrium dissociation constant (Kd) in test [5] was 0.063 nM; in [6], 0.008 nM; in [7] it was 0.0093 nM; in the test with cleaved-rhGDF15 [8], 0.011 nM. The off-rate constant (koff) in test [5] was found to be 0.00072 s⁻¹; in test [6], 1.5e-05 s⁻¹; in test [7] it was 2.6e-05 s⁻¹; in the test with cleaved-rhGDF15 [8] it was 5.2e-05 s⁻¹. The kon in test [5] was 1.1e+07 M⁻¹ s⁻¹; in test [6] it was 2e+06 M⁻¹ s⁻¹; in test [7], 5.3e+06 M⁻¹ s⁻¹; with cleaved-rhGDF15 [8], 6.5e+06 M⁻¹ s⁻¹.

B3: Hu14F11-1 (antibody, human IgG1, kappa)
heavy: not shown
light: DIVMTQSQKFMSTSVGDRVSVTCKASQNVGTNVAWYQQKPGQSPKALIYSPSYRYSGVPDRFTGSGSGTDFTLTISNVQSEDLAEYFCQQYNSYPHTFGGGTKLEMKRTVAAPSVFIFPPSDEQLKSGTASVVCLLNNFYPREAKVQWKVDNALQSGNSQESVTEQDSKDSTYSLSSTLTLSKADYEKHKVYACEVTHQGLSSPVTKSFNRGEC
notes: Mouse variable regions, human IgG1 and kappa constant regions; also called Chimeric 14F11
With B3, in [9], binding was characterised by a dissociation constant (Kd) of 0.032 nM, the koff came to 1.9e-05 s⁻¹ and the on-rate constant (kon) was 630000 M⁻¹ s⁻¹. In test [10], the Kd turned out to be 0.16 nM, the koff amounted to 0.00046 s⁻¹ and the kon amounted to 3e+06 M⁻¹ s⁻¹.

B4: Hu14F11-24 (antibody, human IgG1, kappa)
heavy: not shown
light: B3 light with Y36F, P51A, T72I, S93N, H96L, G100A, M106L
notes: Chimeric 14F11 heavy chain with chimeric 06C11 light chain, human IgG1 kappa; tested in supernatant; also called chimeric light 06C11 with chimeric heavy 14F11
As to B4, in test [9], the affinity, expressed as Kd, was 0.31 nM; the koff was found to be 0.00022 s⁻¹; the kon worked out at 710000 M⁻¹ s⁻¹.

B5: Hu14F11-23 (antibody, human IgG1, kappa)
heavy: not shown
light: B3 light
notes: Chimeric 06C11 heavy chain with chimeric 14F11 light chain, human IgG1 kappa; tested in supernatant; also called chimeric light 14F11 with chimeric heavy 06C11
On to B5, for which, in test [9], the dissociation constant Kd is 0.18 nM, the koff is 6.2e-05 s⁻¹ and the association rate constant (kon) was determined as 340000 M⁻¹ s⁻¹.
